{"source": "patent US20250083113A1", "about": "“Apparatus for Improving Hydration and/or Reducing Particle Size of a Product and a Method of Use Thereof” (St Andrews Pharmaceutical Technology Limited, priority 2021, published 2025)", "test": "Particle size of reconstituted freeze dried Factor XI by dynamic light scattering", "assay_type": "physicochemical", "conditions": "sample exposed to a pulsed electromagnetic field compared to the control", "from_the_text": "Experiment 1 was repeated but with Hemoleven (Factor XI) in place of the Factor VIII."}
{"substance": "Factor XI: Hemoleven (Factor XI), blood clotting factor", "values": [{"measurement": "% volume of larger particles", "value": "significant reduction"}]}
